Consider one molecule from patent publication US20170252403A1, “METHODS AND COMPOSITIONS FOR TREATING RETINAL DISORDERS” (AMARANTUS BIOSCIENCE HOLDINGS, INC., priority 2014, published 2017).

Data set [1] deals with eyes of pigmented rabbits. The data set is described as follows: 15-day ocular tolerance study after single intravitreal administration. It is filed as in vivo, pigmented rabbit. The settings on record: MANF 3 mg/mL, 100 μL single intravitreal.
From the text: Ten female pigmented rabbits were divided into two groups of five animals each, corresponding to both treatments.
The eyes of the animals were examined by Split-lamp and assessed by using the McDonald-Shadduck's scale at Baseline and at Days 1, 3, 8 and 15. At the end of the in-life period on Day 15 both eyeballs of all animals were collected and processed for histology and microscopic examination.
In data set [2] the test system is ischemia of the brain (tMCAO). The settings on record: cited from earlier work.
A short description of data set [3]: General behavior and body weight in the rat retinal ischemia study. The settings on record: for Body weight, sacrifice day, mean: Day 7, group mean.
Method: The body weight of all animals was recorded before the start of the study, on Day 0 and at the end of the study (Day 7).
Each day, the general behavior and the aspect of all animals were observed.
Data set [4] deals with primary mixed cortical/hippocampal neuronal cultures. The settings on record: cultures exposed to the ER stressor tunicamycin; cited from earlier work.
The test system of data set [5] is retinal function after transient retinal ischemia (optic nerve clamping). Nature of the data set: Electroretinography (ERG a-wave/b-wave amplitude) after retinal ischemia by optic nerve clamping.
Method: (§1) In this Example, retinal ischemia was induced by transient vascular clamping of the optic nerve in the right eyes of Sprague Dawley albino rats for 45 min. Reperfusion was initiated by the release of the clamp. Retinal function was evaluated by ERG at baseline and 7 days after ischemia. RGC survival was assessed by immunohistochemistry 7 days after ischemia.
(§2) Retinal ischemia was induced by vascular clamping of the optic nerve in the right eyes for 45 min. Reperfusion was initiated by the release of the clamp. Retinal function was evaluated by electroretinography (ERG) at baseline and 7 days after ischemia. Retinal Ganglion Cell (RGC) survival was assessed by immunohistology 7 days after ischemia.
The functional status of the retina was evaluated by electroretinography one week after the ischemic insult and compared to baseline values determined just prior to optic nerve ischemia. The b-wave is induced by potassium efflux shunted from activated bipolar cells by Müller cells and is an electrophysiological indicator of inner retinal signal transmission. The ERG parameters applied were the following: Color: white maximum; Maximum intensity: 2.6 cd·s/m2 (0 dB); Duration 0.24 ms; Numbers of flashes: 1; Filter: 50 Hz; Impedance threshold: 90 kΩ.
Test and control items were injected intravitreally (4 μL) in right eye from anesthetized rat using a mix of xylazine/ketamine and a 30-G needle mounted on a syringe, immediately after reperfusion.
Reference item was intraperitoneally dosed using a 0.5 mL/kg volume of administration, 30 min before induction.
Right eyes underwent a temporal orbitectomy combined with periorbital stripping. The globe remained in the orbit and was completely isolated on a pedicle consisting of the optic nerve, ophthamociliary arteries and the venous outflow. A clamp placed around the pedicle initiated the global ocular ischemia when tightened.
Ischemia was maintained for 45 minutes. The reperfusion period was initiated by the release of the clamp.
ERG was recorded before ischemia (baseline) and 7 days after reperfusion in both eyes. The a-wave and b-wave amplitudes (μV) were measured for each ERG; the a-wave and b-wave amplitudes as a percentage of the baseline values obtained before ischemia. […] Mydriaticum (0.5% tropicamide) were instilled for pupillary dilatation.
ERG parameters: • Color: white maximum. • Maximum intensity: 2.6 cd·s/m2 (0 dB); Duration 0.24 ms; number of flash: 1. • Filter: 50 Hz. • Impedance Threshold: 90 kΩ.
In data set [6] the test system is retinal ganglion cells (RGC). The data set is described as follows: Retinal ganglion cell survival (Brn3a immunohistochemistry on flat-mounted retinas) after retinal ischemia.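 As to all read-outs here: sprague Dawley rats, right optic nerve vessels clamped 45 min then reperfused, Brn3a-stained RGC counted on flat-mounted retinas in cells/mm^2, 8 fields per retina, uninjured left eyes as naive controls.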 Conditions: for Alive cells (BrN3A positive) in right eye, group Mean / Alive cells (BrN3A positive) in right eye, individual mean cells/mm^2: right injured eye; for Alive cells (BrN3A positive) in right eye, group Mean / Alive cells (BrN3A positive) in right eye, individual mean cells/mm^2 / RGC density, alive cells (BrN3A positive) in right eye: 7 days after ischemia; for Alive cells (BrN3A positive) in right eye, individual mean cells/mm^2: individual rats; for RGC density, alive cells (BrN3A positive) in right eye: 4 μL intravitreal once after reperfusion; for Alive cells (BrN3A positive) in right eye, group Mean / RGC density, alive cells (BrN3A positive) in right eye: group mean.
Method: as §1, §2
To assess the effect of the treatment on RGC viability, the RGC density was evaluated 7 days after ischemia by immunohistochemistry with a stain for the RGC specific marker Brn3a.
After euthanasia, the right eyeballs were fixed in Formalin 4% (24 h at 4° C.), dissected and retinas were flat mounted. Two left eyes retinas per group were sampled and processed the same as the right eye retinas. They served as naïve controls. The flat mounted preparations were stained with an Alexa 594 conjugated anti-BRN3A (Brain-specific hoeobox/POU domain protein 3A, Chemicon, cat #mAb1585) to label RGC. Fluorescence images were recorded with Apotome microscope at magnification ×10 (Zeiss). RGC were counted with Image J software in 8 locations for each retina area (2 pictures per quarter). The cell count was reported in cell/mm^2.

[7] abbreviates: MANF 1.5 mg/mL intravitreal, treated right (ischemic) eye, individual rats.

Several values for one entry are separate records, joined by “and”; a condition that tells them apart may be missing. Equal entries are not always repeated. Entries after “also recorded” stand apart in the source; their conditions may differ. Where two headings read alike, the source gives them in different places.

B1: mesencephalic astrocyte-derived neurotrophic factor (protein)
chain: GRFYQDLKDRDVTFSPATIENELIKFCREARGKENRLCYYIGATDDAATKIINEVSKPLAHHIPVEKICEKLKKKDSQICELKYDKQIDLSTVDTKKLRVKELKKILDDWGETCKGCAEKSDYIRKINELMPKYAPKAASARTDL
As for B1, in data set [1] (right eye, 15 days, McDonald-Shadduck scale), the “Effects on body weight, clinical observations or ophthalmic examinations” value is reported as “no treatment- or administration-related effects”. In addition, the Ocular tolerance result in data set [1] (15 days) is “macroscopically and microscopically well tolerated”. In addition, the “Histopathology evaluation of the eyes” value in data set [1] (Day 15) was “No pathological findings related to treatment”. In addition, the “Reduction of infarct size” value is given as 40% in data set [2] (MANF expressed in the cortex using an AAV-based vector) and 50% in data set [2] (day 2, compared to vehicle treated animals). The “Body weight, sacrifice day, mean” value is reported as 343 g in data set [3] (MANF 0.15 mg/mL intravitreal), 345 g in data set [3] (MANF 0.5 mg/mL intravitreal) and 347 g in data set [3] (MANF 1.5 mg/mL intravitreal). Further, the “General behavior and appearance” value in data set [3] (daily observation during the study period, regardless the dose) was “not altered”. For the same molecule, the “Protection against tunicamycin (TUNEL-positive cells as marker of apoptosis)” value in data set [4] was “fully protected”. Besides, in data set [5] (MANF 0.5 mg/mL intravitreal, Day 7, group mean), the “A-wave amplitude (μV), treated right eye” value is recorded as −268.9 μV. Moreover, in data set [5] (setting [7]), the “A-wave Amplitude (μV) Day 7” value is −254 μV and −299 μV and −255 μV. Besides, in data set [5] (setting [7]), the “B-wave Amplitude (μV) Day 7” value was 426 μV and 456 μV. The “Alive cells (BrN3A positive) in right eye, group Mean” value worked out at 402.8 cells/mm^2 in data set [6] (MANF 0.15 mg/mL intravitreal), 464.9 cells/mm^2 in data set [6] (MANF 0.5 mg/mL intravitreal) and 487.7 cells/mm^2 in data set [6] (MANF 1.5 mg/mL intravitreal). For the same molecule, the “Alive cells (BrN3A positive) in right eye, individual mean cells/mm^2” value is 469 cells/mm^2 and 722 cells/mm^2 and 636 cells/mm^2 and 471 cells/mm^2 and 456 cells/mm^2 and 374 cells/mm^2 and 161 cells/mm^2 and 432 cells/mm^2 and 408 cells/mm^2 and 448 cells/mm^2 and 47 cells/mm^2 and 210 cells/mm^2 in data set [6] (MANF 0.15 mg/mL intravitreal); 512 cells/mm^2 and 443 cells/mm^2 and 613 cells/mm^2 and 364 cells/mm^2 and 379 cells/mm^2 and 549 cells/mm^2 and 336 cells/mm^2 and 97 cells/mm^2 and 249 cells/mm^2 and 1209 cells/mm^2 and 105 cells/mm^2 and 724 cells/mm^2 in data set [6] (MANF 0.5 mg/mL intravitreal); 546 cells/mm^2 and 378 cells/mm^2 and 549 cells/mm^2 and 723 cells/mm^2 and 536 cells/mm^2 and 974 cells/mm^2 and 197 cells/mm^2 and 543 cells/mm^2 and 488 cells/mm^2 and 260 cells/mm^2 and 342 cells/mm^2 and 316 cells/mm^2 in data set [6] (MANF 1.5 mg/mL intravitreal). Besides, the “RGC density, alive cells (BrN3A positive) in right eye” value was 403±189 cells/mm^2 and 402.8 cells/mm^2 in data set [6] (MANF 0.15 mg/mL); 465±301 cells/mm^2 and 464.9 cells/mm^2 in data set [6] (MANF 0.5 mg/mL); 488±214 cells/mm^2 and 488±14 cells/mm^2 and 487.7 cells/mm^2 in data set [6] (MANF 1.5 mg/mL). Besides, the “Protection of RGC, in words” value in data set [6] (single intravitreal MANF at 0.15, 0.5 and 1.5 mg/mL, one-week reperfusion) is on record as “a trend in protecting RGCs; also recorded: protecting RGC”.
